Tests used:
Experiment in all cases: ELISA-type assay, F3 module coated
[1] = biological target: Recombinant fibronectin module ^3F3 (Homo sapiens (Human), UniProt P02751 810-900)
[2] = biological target: T1, Recombinant fibronectin modules ^1-2F3 (Homo sapiens (Human), UniProt P02751 608-809)
T1 construct: Expressed with N-terminal His-tag

[3] = biological target: T2, Recombinant fibronectin module ^1F3 (Homo sapiens (Human), UniProt P02751 608-700)
T2 construct: Expressed with N-terminal His-tag, purified by Ni-NTA and ion-exchange chromatography; also called ^1F3 module

Measured: binding result

T2 sequence (P02751 608-700 limits assumed): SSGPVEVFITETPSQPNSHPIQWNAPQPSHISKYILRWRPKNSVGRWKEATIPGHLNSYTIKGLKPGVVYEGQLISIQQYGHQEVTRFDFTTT
Sequence of Recombinant fibronectin module ^3F3 (P02751 other isoform, or with tags, fused parts or gaps limits assumed): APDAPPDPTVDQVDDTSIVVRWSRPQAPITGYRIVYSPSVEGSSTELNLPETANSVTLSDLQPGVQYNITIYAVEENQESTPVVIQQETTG
T1 sequence (P02751 608-809 limits assumed): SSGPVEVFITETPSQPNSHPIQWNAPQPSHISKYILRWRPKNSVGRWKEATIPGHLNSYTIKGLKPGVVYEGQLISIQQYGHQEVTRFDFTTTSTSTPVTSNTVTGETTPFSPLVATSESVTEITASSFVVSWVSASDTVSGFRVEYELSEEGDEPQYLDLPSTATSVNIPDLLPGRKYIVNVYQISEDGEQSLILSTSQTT

B1: FnbpA peptide D3 (S. aureus fibronectin-binding peptide) (peptide)
peptide: GFNKHTEIIEEDTNKDKPSYQFGGHNSVDFEEDTLPK
notes: domain: D3; also called peptide D3 from FnbpA; D3 fragment of S. aureus FnbpA
no binding: all assays above

Reference: patent publication US20090170751A1 (published 2009)
